In one test the target is Sgo1_(1-130) (human) (UniProt Q5FBB7). Nature of the test: ITC. In general terms: Isothermal titration calorimetry measures the heat released or taken up as one component is titrated into another.
For test [1], the target named is Sgo1_(1-415) (human) (UniProt Q5FBB7). Briefly: ITC.
Test [2] has the same target. Briefly: mass photometry.

4 substances from publication doi:10.1101/2021.08.27.457910 can be followed below.

As a reminder, the Kd is the equilibrium constant for the complex coming apart. Lower therefore signals tighter binding. Turning to “CPC_(ISB10-221) (INCENP_(1-58), Survivin and Borealin_(10-221)) (from UniProt Q9NQS7 1-58; O15392 1-142; Q53HL2 10-221) (complex)”, in the test with Sgo1_(1-130) (human), the Kd is 0.163 µM.

For orientation: stoichiometry N means a count of units in the complex or per binding partner. For the substance “CPC_(ISB10-280) (INCENP_(1-58), Survivin full length and Borealin_(10-280)) (from UniProt Q9NQS7 1-58; O15392 1-142; Q53HL2 10-280) (complex)”, in the test with Sgo1_(1-130) (human), the Kd was determined as 0.057 µM. In the test with Sgo1_(1-415) (human) [1], this substance had a dissociation constant Kd of 0.053 µM, a dH of -6.58 kcal/mol and a stoichiometry N of 1.

As for “Sgo1_(1-415) (from UniProt Q5FBB7 1-415) (domain or fragment)”, the stoichiometry N in the test with Sgo1_(1-415) (human) [2] was found to be 2.

With “Survivin (from UniProt O15392 1-142) (natural protein)”, the dissociation constant Kd in the test with Sgo1_(1-130) (human) came out at 0.255 µM. This counts as sub-micromolar.
